# Data as given in patent publication US20240122985A1, “ANTIBODIES, COMBINATIONS COMPRISING ANTIBODIES, BIOMARKERS, USES & METHODS” (KYMAB LIMITED, priority 2016, published 2024).
# T1: CHO-S expressed hOX40L (Homo sapiens, UniProt P23510)
# T1 construct: CHO-S cells (optionally transfected with full length human OX40L); expressed in transfected cells
# T1 sequence (P23510 1-183): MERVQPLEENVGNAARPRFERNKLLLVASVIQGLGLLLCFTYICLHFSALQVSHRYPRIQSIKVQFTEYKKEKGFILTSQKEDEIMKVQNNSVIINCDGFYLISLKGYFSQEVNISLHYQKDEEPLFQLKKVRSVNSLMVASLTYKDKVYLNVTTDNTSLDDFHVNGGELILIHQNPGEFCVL
# B1: 9H04 (hybridoma): anti-OX40L antibody from hybridoma; VH Seq ID No:66, VL Seq ID No:80 (antibody, V domains shown)
# VH: QVQLVESGGGLVKPGGSLRLSCAASRFTLSDYYMTWIRQAPGKGLEWVSYISSSGNTIYYADSVKGRFTISRDNAKNSLYLQMNSLRAEDTAVYYCARDLSGSYWDYYYGMDVWGQGTTVTVSS
# VL: AIQLTQSPSSLSTSVGDRVTIACRASQGINNALAWYQQKPGKAPKLLIYDASSLESGVPSRFSGSGSGTDFTLTISSLQPEDFATYYCQQFNSYPRTFGQGTKVEIK
# modifications: 09H04 - VH Amino Acid Sequence; 09H04 - VL Amino Acid Sequence
# B2: 10A07 (hybridoma): murine/human chimeric anti-OX40L antibody purified from hybridoma supernatant (antibody, V domains shown)
# VH: EVQLVESGGVLVQPGGSLRLSCAASGFTFSSYIMTWVRQAPGKGLEWVSGISGSGGGTYYADSMKGRFTISRDNSKNTLYLQMNSLRVEDTAVYYCAKDRLGPITLVRGGYYYGMDVWGQGTTVTVSS
# VL: DIQMTQSPSSLSASVGDRVTITCRASQSISDYLNWYQQKPGKAPKFLIYAASSLQSGVPSRFSGSGSGTDFTLTVSSLQPEDFATYYCQQSYSTPRTFGQGTRVEIK
# B3: 10A07 (human): fully human anti-human OX40L monoclonal antibody; VH Seq ID No:2, VL Seq ID No:16 (antibody, V domains shown)
# VH: B2 VH
# VL: B2 VL
# modifications: 10A07 - VH Amino Acid Sequence; 10A07 - VL Amino Acid Sequence
# B4: 2D10 (hybridoma): murine/human chimeric anti-OX40L antibody purified from hybridoma supernatant (antibody, V domains shown)
# VH: EVQLVESGGGLVQPGGSLRLSCAASGFTFSNYAMNWVRQAPGKGLEWVSTISGSGGATRYADSVKGRFTISRDNSRNTVYLQMNSLRVEDTAVFYCTKDRLIMATVRGPYYYGMDVWGQGTTVTVSS
# VL: DIQMTQSPSSLSASVGDRVTITCRASQSISSYLNWYQQKPGKAPNLLIYAASSLQSGVPSRFSGSGSETDFTLTISSLQPEDFATYYCQQSHSVSFTFGPGTKVDIK
# Legend:
# [1] = system: Rhesus Macaque Graft versus Host Disease (GvHD) model; details: Example 9, post-HSCT prophylaxis, Rhesus macaque (FIG. 7)
# From the text: The effectiveness of antibody 2D10 IgG4PE as a monotherapy prophylactic for the prevention of GvHD was examined in a Rhesus Macaque model of haploidentical hematopoietic stem cell transplantation (HSCT).
# All transplants were between half-sibling pairs that are mismatched at one MHC haplotype (“haploidentical-HCTs”). Recipient animals had irradiation based pre-myeloablative pre-transplant conditioning using a linear accelerator. Dose rate: 7cGy/min. Dose 1020 cGy given in 4 fractions. The leukapheresis donor animal underwent GCSF mobilisation and underwent leukapheresis using a Spectra Optia apheresis machine.
# 2D10 IgG4PE was dosed at 10 mg/kg i.v. according to a planned dosing schedule to take place on Day −2, Day+5, Day+12, Day+19, Day+26, Day+33, Day+40, Day+47 post-transplant.
# Samples were taken during the course of the study to monitor donor chimerism (Table 4) and white blood cell counts. The primary end point was based on survival, with a survival to 15 days deemed to be a sign of successful prophylactic therapy (and compared to the documented survival of 6-8 days with no prophylaxis; Miller et al. 2010, supra). Though full pathology and histology with GvHD grading scores, markers of T-cell proliferation and activation (such as Ki-67 and granzyme B) and gene array analysis are planned, they were not available for inclusion at the time of drafting.
# Scoring of clinical symptoms was based on observational assessments and clinical chemistry, classified according to the criteria set out in Table 5.
# A further rhesus macaque GvHD study was conducted to determine the effect of combined post-HSCT prophylaxis with 2D10 IgG4PE and rapamycin. The study was performed as described in Example 7, with dosing as follows: 2D10 IgG4PE was administered i.v. at 10 mg/kg on Day −2, Day +5, Day+12, Day+19, Day+26, Day+33, Day+40, Day+47 and Day+56 post-transplant. Rapamycin was administered at a loading dose of 0.1 mg/kg i.m. on Day −14, followed by daily i.m. maintenance doses of 0.025 mg/kg until the scheduled termination of the study at Day+100. Rapamycin dosing was adjusted to maintain serum trough levels within the range 5-15 ng/mL.
# This was a cohort study in NHP designed to determine the clinical, immunologic and molecular outcomes of OX40L blockade during allogeneic HCT. Two cohorts of transplant recipients were studied: (1) Allogeneic transplants using the OX40L-blocking human IgG4-PE antibody 1D05 (described as ‘KY1005’ in this Example 11) as monotherapy for GVHD prophylaxis (abbreviated as ‘KY1005’; n=4). KY1005 was given at a dose of 10 mg/kg starting on Days −2 and then once weekly until discontinuation on Days 54 (FIG. 8E). […] (2) Allogeneic transplants using KY1005 in combination with Sirolimus (Rapamycin) ([…]) for GVHD prophylaxis (abbreviated as ‘KY1005/Siro’; n=5). KY1005 was given at a dose of 10 mg/kg starting on Days −2 and then once weekly until discontinuation on Days 54 (FIG. 8P). […] These two OX40L-blockade groups were compared to the following cohorts, aspects of which have been described previously (Furlan et al., 2015; Furlan et al., 2016; Miller et al., 2010) (1) Autologous transplants (abbreviated as ‘Auto’, n=6 for clinical and flow cytometric data and n=4 for transcriptomic analysis) (2); Allogeneic transplants with no GVHD prophylaxis (abbreviated as‘No Rx’, n=11 for clinical and flow cytometric data and n=4 for transcriptomic analysis). (3) Allogeneic transplants using Sirolimus monotherapy for GVHD prophylaxis (LC laboratories, abbreviated as ‘Siro’, n=11 for flow cytometric analysis, n=4 for transcriptomic analysis).
# [2] = biological target: T1, CHO-S expressed hOX40L; test: Binding to CHO-S expressed hOX40L and receptor neutralisation (FACS); assay type: cell-based
# Experimental: CHO-S cells expressing hOX40L or untransfected CHO-S cells, diluted in FACS buffer (PBS+1% w/v BSA+0.1% w/v NaN3) were distributed to a 96 well V-bottom plate (Greiner) at a density of 1×10^5 cells per well. Cells were washed with 150 μL of PBS and centrifuged at 300×g for 3 min. Supernatant was aspirated and 150 μL of PBS added. This wash step was repeated.
# 25 μL of hybridoma supernatant or purified antibody from hybridoma supernatant diluted in FACS buffer was added to the washed cells and incubated for 10-15 minutes. Reference Antibody or mouse IgG1 control antibody (Sigma) were diluted in FACS buffer to 20 μg/mL and 25 μL added to cells. 25 μL of human OX40R Fc (in-house) diluted to 1000 ng/mL in FACS buffer were then added to wells. Cells were incubated at 4° C. for 30 minutes.
# To detect antibody and receptor binding, 50 μL of Goat anti-human IgG-PE (Jackson ImmunoResearch) and APC anti-mouse IgG (Jackson ImmunoResearch) diluted 1 in 500 in FACS buffer was added to the cells. Cells were incubated 30 minutes at 4° C. in the dark.
# To fix cells 100 μL 2% v/v paraformaldehyde was added and cells incubated for 30 minutes at 4° C., cells were pelleted by centrifugation 300×g and the plates and resuspended in 50 μL of FACS buffer. PE and APC signal intensity (geomean) was measured by flow cytometry using a BD FACS Array instrument.
# % of control binding was calculated using geomean fluorescence as described in equation 1 where total binding was defined as reference antibody at 10 μg/mL and non-specific binding as mouse IgG1 antibody at 10 μg/mL. % receptor binding was calculated using Equation 3.
# [3] = biological target: T2, recombinant hOX40L (Homo sapiens, UniProt P23510); test: Surface plasmon resonance, apparent affinity to human OX40L; assay type: binding; details: SPR, 25° C.; CNROR = Cannot resolve off-rate
# T2 construct: cDNA encoding the extracellular domain of human OX40L was cloned into a pREP4 expression plasmid; isoleucine zipper (N); made in house; host or cells: FreeStyle CHO-S (transient)
# T2 sequence (P23510 with tags, fused parts or gaps): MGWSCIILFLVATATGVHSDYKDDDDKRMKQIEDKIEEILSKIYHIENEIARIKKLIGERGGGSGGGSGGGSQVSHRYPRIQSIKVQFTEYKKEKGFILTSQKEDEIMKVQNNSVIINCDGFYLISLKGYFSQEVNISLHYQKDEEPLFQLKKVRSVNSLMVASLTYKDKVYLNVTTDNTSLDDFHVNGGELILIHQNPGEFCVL
# Experimental: (§1) SPR analysis was carried out using the ProteOn™ XPR36 Array System (BioRad). Anti-mouse IgG (GE Healthcare BR-1008-38) was immobilised on a GLM biosensor surface using amine coupling, the surface was then blocked using 1 M ethanolamine. Test antibodies were captured on this surface and recombinant hOX40L (human and rhesus) were used at a single concentration of 256 nM, binding sensorgrams were double referenced using a buffer injection (i.e. 0 nM) to remove baseline drift and injection artefacts. Apparent affinities for the OX40L-antibody interaction were determined using the 1:1 model inherent to the ProteOn XPR36 analysis software. The assay was run using HBS-EP (Teknova) as running buffer and carried out at 25° C.
# [4] = biological target: Rhesus monkey OX40L; test: Surface plasmon resonance, apparent affinity to rhesus OX40L; assay type: binding, Rhesus (Macaca mulatta); details: SPR, 25° C.; CNROR = Cannot resolve off-rate
# Chain of Rhesus monkey OX40L (as listed by the source): as the sequence (P23510 with tags, fused parts or gaps) above, with R77Q, K95E counted along it
# Experimental: as §1
Molecule,"median survival time, MST [1] [days]",FACS Binding [2],Apparent Affinity hOX40L (nM) [3],Apparent Affinity RhsOX40L (nM) [4]
"CO[C@H]1C[C@@H]2CC[C@@H](C)[C@@](O)(O2)C(=O)C(=O)N2CCCC[C@H]2C(=O)O[C@H]([C@H](C)C[C@@H]2CC[C@@H](O)[C@H](OC)C2)CC(=O)[C@H](C)/C=C(\C)[C@@H](O)[C@@H](OC)C(=O)[C@H](C)C[C@H](C)/C=C/C=C/C=C/1C [rapamycin, rapamycin (sirolimus), reference compound]",17,–,–,–
B1,–,YES,–,–
B2,–,YES,CNROR,CNROR
B3,–,–,CNROR,CNROR
B4,–,YES,CNROR,CNROR
